Here are results for 61 sequences from the supplement of paper PMC7877785.

A short description of this series: self-splicing fitness, log relative to wild type (ln ratio); higher = more splicing; Tetrahymena group I intron in knt gene, E. coli kanamycin selection, DiMSum; sequences stand for … in CUCUCU…GGAGGGAAAAGUUAUCAGGCAUGCACCUGGUAGCUAGUCUUUAAACCAAUAGAUUGCAUCGGUUUAAAAGGCAAGACCGUCAAAUUGCGGGAAAGGGGUCAACAGCCGUUCAGUACCAAGUCUCAGGGGAAACUUUGAGAUGGCCUUGCAAAGGGUAUGGUAAUAAGCUGACGGACAUGGUCCUAACCACGCAGCCAAGUCCUAAGUCAACAGAUCUUCUGUUGAUAUGGAUGCAGUUCACAGACUAAAUGUCGGUCGGGGAAGAUGUAUUCUUCUCAUAAGAUAUAGUCGGACCUCUCCUUAAUGGGAGCUAGCGGAUGAAGUGAUGCAACACUGGAGCCGCUGGGAACUAAUUUGUAUGCGAAAGUAUAUUGAUUAGUUUUGGAGUACUCGUGGUCG
The essentials: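 Pooled colonies went to amplicon sequencing on an Illumina HiSeq 2500 after six replicate transformations. The plates were LB agar with 100 μg/mL carbenicillin, 50 μM IPTG and 0.2% rhamnose, with or without 25 μg/mL kanamycin, incubated overnight at 37°C or 30°C. The E. coli BL21(DE3) library had all eight P1ex-region intron nucleotides randomised, the intron placed in the knt kanamycin-resistance gene on pET-22b(+). DiMSum fitness is the error-weighted combination of replicate fold changes, kanamycin against none, normalised to wild type.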

± gives the uncertainty stated by the source.

Regarding UACCAGCAAUAUUACGGCCA, the “self-splicing fitness (ln)” value by setting is: (30 °C) -0.369 ± 0.073; (37 °C) -0.0799 ± 0.097.

As for UACCAGCAAUAUUACGGGAC, the “self-splicing fitness (ln)” value (30 °C) is -3.46 ± 0.19 and the “self-splicing fitness (ln)” value (37 °C) was -2.31 ± 0.2.

In the case of UACCAGCAAUAUUACGGGUU, the “self-splicing fitness (ln)” value is -2.21 ± 0.085 (30 °C) and -1.46 ± 0.1 (37 °C).

In the case of UACCAGCAAUAUUACGUAAC, the “self-splicing fitness (ln)” value reads like this: (30 °C) -2.64 ± 0.13; (37 °C) -2.18 ± 0.2.

Regarding UACCAGCAAUAUUACGUAGG, the “self-splicing fitness (ln)” value was -3.19 ± 0.2 (30 °C) and -2.74 ± 0.24 (37 °C).

As for UACCAGCAAUAUUACGUCCC, the “self-splicing fitness (ln)” value by setting is: (30 °C) -1.47 ± 0.35; (37 °C) -1.38 ± 0.38.

Regarding UACCAGCAAUAUUACGUCUA, the “self-splicing fitness (ln)” value reads like this: (30 °C) 0.0647 ± 0.067; (37 °C) 0.41 ± 0.086.

As for UACCAGCAAUAUUACGUCUC, the “self-splicing fitness (ln)” value is, setting by setting: (30 °C) -2.4 ± 0.14; (37 °C) -2.26 ± 0.18.

In the case of UACCAGCAAUAUUACGUUCA, the “self-splicing fitness (ln)” value by setting is: (30 °C) -0.401 ± 0.06; (37 °C) 0.27 ± 0.08.

For the sequence UACCAGCAAUAUUACGUUUG, the “self-splicing fitness (ln)” value runs as follows: (30 °C) -3.36 ± 0.12; (37 °C) -2.43 ± 0.13.

Take UACCAGCAAUAUUACGUUUU: the “self-splicing fitness (ln)” value was -1.51 ± 0.094 (30 °C) and -2.37 ± 0.15 (37 °C).

As for UACGAGCAAUAUUACGAAAC, the “self-splicing fitness (ln)” value (30 °C) is -2.05 ± 0.48.

In the case of UACGAGCAAUAUUACGAACG, the “self-splicing fitness (ln)” value (30 °C) is -2.96 ± 0.26 and the “self-splicing fitness (ln)” value (37 °C) was -2.05 ± 0.16.

Regarding UACGAGCAAUAUUACGACUA, the “self-splicing fitness (ln)” value by setting is: (30 °C) -0.65 ± 0.085; (37 °C) -0.167 ± 0.1.

For the sequence UACGAGCAAUAUUACGACUG, the “self-splicing fitness (ln)” value (30 °C) was -0.684 ± 0.24 and the “self-splicing fitness (ln)” value (37 °C) was -1.35 ± 0.17.

With UACGAGCAAUAUUACGAUAA, the “self-splicing fitness (ln)” value is, setting by setting: (30 °C) -2.9 ± 0.16; (37 °C) -2.05 ± 0.16.

Regarding UACGAGCAAUAUUACGAUUG, the “self-splicing fitness (ln)” value (30 °C) was -3.62 ± 0.25 and the “self-splicing fitness (ln)” value (37 °C) is -0.584 ± 0.2.

For UACGAGCAAUAUUACGCAGC, the “self-splicing fitness (ln)” value (30 °C) was -3.16 ± 0.34 and the “self-splicing fitness (ln)” value (37 °C) is -3.83 ± 0.46.

For UACGAGCAAUAUUACGCGAA, the “self-splicing fitness (ln)” value runs as follows: (30 °C) -2.89 ± 0.32; (37 °C) -2.72 ± 0.26.

For the sequence UACGAGCAAUAUUACGCUCA, the “self-splicing fitness (ln)” value was -1.46 ± 0.15 (30 °C) and -0.952 ± 0.2 (37 °C).

As to UACGAGCAAUAUUACGGAAG, the “self-splicing fitness (ln)” value is -3.5 ± 0.24 (30 °C) and -2.26 ± 0.37 (37 °C).

Take UACGAGCAAUAUUACGGACU: the “self-splicing fitness (ln)” value (30 °C) is -2.36 ± 0.23.

As for UACGAGCAAUAUUACGGGAA, the “self-splicing fitness (ln)” value is, setting by setting: (30 °C) -1.91 ± 0.2; (37 °C) -2.85 ± 0.4.

Take UACGAGCAAUAUUACGGGGG: the “self-splicing fitness (ln)” value was -4.08 ± 0.29 (30 °C) and -3.14 ± 0.34 (37 °C).

Regarding UACGAGCAAUAUUACGGGGU, the “self-splicing fitness (ln)” value was -3.05 ± 0.14 (30 °C) and -2.28 ± 0.14 (37 °C).

With UACGAGCAAUAUUACGGUAG, the “self-splicing fitness (ln)” value was -2.97 ± 0.14 (30 °C) and -2.35 ± 0.17 (37 °C).

For UACGAGCAAUAUUACGGUAU, the “self-splicing fitness (ln)” value runs as follows: (30 °C) -3.12 ± 0.26; (37 °C) -3.28 ± 0.3.

Regarding UACGAGCAAUAUUACGUCUG, the “self-splicing fitness (ln)” value reads like this: (30 °C) -1.51 ± 0.1; (37 °C) -1.34 ± 0.11.

On to UACGAGCAAUAUUACGUGCU, for which the “self-splicing fitness (ln)” value runs as follows: (30 °C) -3.9 ± 0.23; (37 °C) -2.4 ± 0.19.

With UACGAGCAAUAUUACGUGGU, the “self-splicing fitness (ln)” value reads like this: (30 °C) -2.86 ± 0.15; (37 °C) -1.87 ± 0.23.

Consider UACGAGCAAUAUUACGUGUC, for which the “self-splicing fitness (ln)” value runs as follows: (30 °C) -3.32 ± 0.17; (37 °C) -2.83 ± 0.28.

As for UACGAGCAAUAUUACGUUAG, the “self-splicing fitness (ln)” value is -3.03 ± 0.17 (30 °C) and -2.32 ± 0.19 (37 °C).

Take UACGAGCAAUAUUACGUUCC: under “30 °C”, the “self-splicing fitness (ln)” value was -2.83 ± 0.36.

Take UACGAGCAAUAUUACGUUGA: the “self-splicing fitness (ln)” value is, setting by setting: (30 °C) -3.2 ± 0.24; (37 °C) -2.73 ± 0.23.

On to UACUAGCAAUAUUACGACAG, for which the “self-splicing fitness (ln)” value reads like this: (30 °C) -1.04 ± 0.1; (37 °C) -0.806 ± 0.13.

In the case of UACUAGCAAUAUUACGACUA, the “self-splicing fitness (ln)” value is, setting by setting: (30 °C) 0.113 ± 0.097; (37 °C) 0.792 ± 0.11.

On to UACUAGCAAUAUUACGAGGC, for which the “self-splicing fitness (ln)” value reads like this: (30 °C) -3.01 ± 0.17; (37 °C) -2.27 ± 0.23.

As to UACUAGCAAUAUUACGAUGU, the “self-splicing fitness (ln)” value was -3.42 ± 0.27 (30 °C) and -1.74 ± 0.22 (37 °C).

Take UACUAGCAAUAUUACGCCGG: the “self-splicing fitness (ln)” value was -1.68 ± 0.18 (30 °C) and -0.8 ± 0.17 (37 °C).

As to UACUAGCAAUAUUACGCGAC, the “self-splicing fitness (ln)” value runs as follows: (30 °C) -2.29 ± 0.25; (37 °C) -2.29 ± 0.3.

With UACUAGCAAUAUUACGCGCG, the “self-splicing fitness (ln)” value was -0.375 ± 0.12 (30 °C) and -0.0222 ± 0.12 (37 °C).

UACUAGCAAUAUUACGCUGA: the “self-splicing fitness (ln)” value (30 °C) was -2.48 ± 0.16 and the “self-splicing fitness (ln)” value (37 °C) was -1.37 ± 0.15.

Consider UACUAGCAAUAUUACGCUUC, for which the “self-splicing fitness (ln)” value runs as follows: (30 °C) -2.88 ± 0.17; (37 °C) -1.66 ± 0.26.

For the sequence UACUAGCAAUAUUACGGAAU, the “self-splicing fitness (ln)” value runs as follows: (30 °C) -4.58 ± 0.39; (37 °C) -2.95 ± 0.23.

As for UACUAGCAAUAUUACGGCAG, the “self-splicing fitness (ln)” value by setting is: (30 °C) -0.408 ± 0.075; (37 °C) 0.134 ± 0.12.

For the sequence UACUAGCAAUAUUACGGCGA, the “self-splicing fitness (ln)” value is, setting by setting: (30 °C) -0.849 ± 0.11; (37 °C) 0.621 ± 0.13.

For the sequence UACUAGCAAUAUUACGGGCG, the “self-splicing fitness (ln)” value was -0.0495 ± 0.11 (30 °C) and 0.375 ± 0.14 (37 °C).

For the sequence UACUAGCAAUAUUACGGUGC, the “self-splicing fitness (ln)” value was -3.29 ± 0.26 (30 °C) and -2.04 ± 0.31 (37 °C).

For UACUAGCAAUAUUACGGUUA, the “self-splicing fitness (ln)” value reads like this: (30 °C) -0.377 ± 0.1; (37 °C) 0.35 ± 0.12.

As to UACUAGCAAUAUUACGGUUU, the “self-splicing fitness (ln)” value (30 °C) is -1.41 ± 0.1 and the “self-splicing fitness (ln)” value (37 °C) was -0.44 ± 0.12.

On to UACUAGCAAUAUUACGUAUA, for which the “self-splicing fitness (ln)” value is -2.31 ± 0.29 (30 °C) and -1.19 ± 0.21 (37 °C).

Take UACUAGCAAUAUUACGUCAU: the “self-splicing fitness (ln)” value reads like this: (30 °C) -2.66 ± 0.2; (37 °C) -1.74 ± 0.13.

On to UACUAGCAAUAUUACGUCCG, for which the “self-splicing fitness (ln)” value reads like this: (30 °C) -0.327 ± 0.12; (37 °C) 0.11 ± 0.14.

UACUAGCAAUAUUACGUCGA: the “self-splicing fitness (ln)” value is, setting by setting: (30 °C) -2.11 ± 0.12; (37 °C) -0.821 ± 0.12.

As to UACUAGCAAUAUUACGUGAA, the “self-splicing fitness (ln)” value (30 °C) is -2.19 ± 0.11 and the “self-splicing fitness (ln)” value (37 °C) was -1.18 ± 0.13.

UACUAGCAAUAUUACGUUUA: the “self-splicing fitness (ln)” value is -2.47 ± 0.16 (30 °C) and -1.05 ± 0.12 (37 °C).

Regarding UAGAAGCAAUAUUACGACCA, the “self-splicing fitness (ln)” value is -0.67 ± 0.094 (30 °C) and -0.157 ± 0.12 (37 °C).

UAGAAGCAAUAUUACGAUAU: the “self-splicing fitness (ln)” value runs as follows: (30 °C) -3.44 ± 0.25; (37 °C) -2.19 ± 0.19.

Regarding UAGAAGCAAUAUUACGAUGU, the “self-splicing fitness (ln)” value is, setting by setting: (30 °C) -3.01 ± 0.18; (37 °C) -1.69 ± 0.19.

UAGAAGCAAUAUUACGCCAU: the “self-splicing fitness (ln)” value (30 °C) is -1.02 ± 0.4.

Take UAGAAGCAAUAUUACGCCCU: the “self-splicing fitness (ln)” value reads like this: (30 °C) -0.743 ± 0.19; (37 °C) 0.316 ± 0.22.
